± gives the uncertainty stated by the source.
Test: self-splicing fitness, log relative to wild type (ln ratio); higher = more splicing; Tetrahymena group I intron in knt gene, E. coli kanamycin selection, DiMSum; sequences stand for … in CUCUCU…GGAGGGAAAAGUUAUCAGGCAUGCACCUGGUAGCUAGUCUUUAAACCAAUAGAUUGCAUCGGUUUAAAAGGCAAGACCGUCAAAUUGCGGGAAAGGGGUCAACAGCCGUUCAGUACCAAGUCUCAGGGGAAACUUUGAGAUGGCCUUGCAAAGGGUAUGGUAAUAAGCUGACGGACAUGGUCCUAACCACGCAGCCAAGUCCUAAGUCAACAGAUCUUCUGUUGAUAUGGAUGCAGUUCACAGACUAAAUGUCGGUCGGGGAAGAUGUAUUCUUCUCAUAAGAUAUAGUCGGACCUCUCCUUAAUGGGAGCUAGCGGAUGAAGUGAUGCAACACUGGAGCCGCUGGGAACUAAUUUGUAUGCGAAAGUAUAUUGAUUAGUUUUGGAGUACUCGUGGUCG
How it was run: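 Fitness was computed with DiMSum as the error-weighted combination of replicate fold changes, kanamycin versus none, each normalised to wild type. The library randomised all eight intron nucleotides of the P1ex region, with the intron placed in the knt kanamycin-resistance gene on pET-22b(+) in E. coli BL21(DE3). Six replicate transformations were grown overnight at 37°C or 30°C on LB agar with or without 25 μg/mL kanamycin, plus 100 μg/mL carbenicillin, 50 μM IPTG and 0.2% rhamnose. Pooled colonies were amplicon-sequenced on an Illumina HiSeq 2500.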

Row | Sequence | self-splicing fitness (ln) (30 °C) | self-splicing fitness (ln) (37 °C)
1 | CGCUAGCAAUAUUACGAGUU | -2.49 ± 0.1 | -2.38 ± 0.15
2 | CGCUAGCAAUAUUACGAUAA | -4.27 ± 0.36 | -2.35 ± 0.32
3 | CGCUAGCAAUAUUACGCAAA | – | -3.01 ± 0.47
4 | CGCUAGCAAUAUUACGCACA | -1.37 ± 0.13 | -0.405 ± 0.1
5 | CGCUAGCAAUAUUACGCCAG | -3.09 ± 0.15 | -2.81 ± 0.29
6 | CGCUAGCAAUAUUACGCGCC | -2.52 ± 0.19 | -2.24 ± 0.35
7 | CGCUAGCAAUAUUACGCGGG | -4.55 ± 0.26 | -2.08 ± 0.16
8 | CGCUAGCAAUAUUACGCUUC | -2.39 ± 0.28 | -2.39 ± 0.39
9 | CGCUAGCAAUAUUACGGACA | -0.438 ± 0.14 | -0.65 ± 0.13
10 | CGCUAGCAAUAUUACGGAGC | -2.64 ± 0.2 | -1.84 ± 0.24
11 | CGCUAGCAAUAUUACGGCGG | -1.68 ± 0.089 | -0.662 ± 0.11
12 | CGCUAGCAAUAUUACGGCUG | -1.13 ± 0.12 | -0.227 ± 0.14
13 | CGCUAGCAAUAUUACGGGCG | -2.95 ± 0.28 | -2.74 ± 0.44
14 | CGCUAGCAAUAUUACGUAAA | -2.46 ± 0.2 | -1.33 ± 0.31
15 | CGCUAGCAAUAUUACGUCAG | -1.4 ± 0.12 | -0.542 ± 0.14
16 | CGCUAGCAAUAUUACGUGCU | -1.82 ± 0.16 | -1.63 ± 0.18
17 | CGCUAGCAAUAUUACGUGGU | -3.55 ± 0.27 | -2.61 ± 0.26
18 | CGCUAGCAAUAUUACGUUAU | -4.99 ± 0.32 | -3.36 ± 0.26
19 | CGCUAGCAAUAUUACGUUCC | -2.83 ± 0.15 | -2.81 ± 0.31
20 | CGGAAGCAAUAUUACGAAAG | -0.838 ± 0.12 | -0.911 ± 0.19
21 | CGGAAGCAAUAUUACGAAGG | -1.17 ± 0.11 | -0.983 ± 0.18
22 | CGGAAGCAAUAUUACGAAUC | -3.29 ± 0.3 | -2.46 ± 0.29
23 | CGGAAGCAAUAUUACGACAC | – | -1.66 ± 0.38
24 | CGGAAGCAAUAUUACGAGCA | -2.83 ± 0.24 | -1.82 ± 0.18
25 | CGGAAGCAAUAUUACGAGUC | -2.83 ± 0.22 | -2.39 ± 0.31

Row | Sequence | self-splicing fitness (ln) (30 °C) | self-splicing fitness (ln) (37 °C)
26 | CGGAAGCAAUAUUACGAUCC | -3.21 ± 0.37 | -1.42 ± 0.23
27 | CGGAAGCAAUAUUACGCCCA | -0.0821 ± 0.13 | 0.194 ± 0.2
28 | CGGAAGCAAUAUUACGCCCU | -0.363 ± 0.13 | 0.204 ± 0.15
29 | CGGAAGCAAUAUUACGCCGU | -2.88 ± 0.44 | -1.91 ± 0.28
30 | CGGAAGCAAUAUUACGCUAA | -2.74 ± 0.17 | -3.01 ± 0.29
31 | CGGAAGCAAUAUUACGCUUG | – | -2.42 ± 0.27
32 | CGGAAGCAAUAUUACGCUUU | -2.02 ± 0.18 | -3.26 ± 0.33
33 | CGGAAGCAAUAUUACGGACA | 0.389 ± 0.13 | -0.329 ± 0.15
34 | CGGAAGCAAUAUUACGGCCC | 0.0304 ± 0.18 | 0.0512 ± 0.23
35 | CGGAAGCAAUAUUACGGGGC | -2.49 ± 0.19 | -2.71 ± 0.26
36 | CGGAAGCAAUAUUACGUACA | -0.615 ± 0.13 | -0.219 ± 0.15
37 | CGGAAGCAAUAUUACGUACG | -3.87 ± 0.24 | -2.26 ± 0.21
38 | CGGAAGCAAUAUUACGUAGG | -0.48 ± 0.078 | -1.38 ± 0.12
39 | CGGAAGCAAUAUUACGUAUA | -2.82 ± 0.24 | -2.63 ± 0.3
40 | CGGAAGCAAUAUUACGUCAG | -1.33 ± 0.13 | -0.154 ± 0.17
41 | CGGAAGCAAUAUUACGUCCA | -0.281 ± 0.097 | 0.585 ± 0.13
42 | CGGAAGCAAUAUUACGUGCU | -3.85 ± 0.24 | -2.32 ± 0.23
43 | CGGAAGCAAUAUUACGUUGG | -1.89 ± 0.071 | -0.688 ± 0.077
44 | CGGCAGCAAUAUUACGAAUA | – | -2.07 ± 0.27
45 | CGGCAGCAAUAUUACGACCU | -0.341 ± 0.089 | -0.0632 ± 0.11
46 | CGGCAGCAAUAUUACGAUGU | -3.85 ± 0.31 | -3.14 ± 0.35
47 | CGGCAGCAAUAUUACGCAGU | -3.02 ± 0.17 | -2.07 ± 0.29
48 | CGGCAGCAAUAUUACGCGCA | -0.939 ± 0.097 | -0.247 ± 0.1
49 | CGGCAGCAAUAUUACGCGCC | -4.3 ± 0.43 | -3.04 ± 0.47
